Assays:
Test in all cases: holdup assay
Parameters in all cases: key: below the threshold = too weak to quantify, mostly under pKd 3.1 to 4
GRIP1_4, Q9Y3R0 = target: T1, GRIP1_4, Q9Y3R0
T1 sequence (Q9Y3R0 467-571, limits assumed, looked up): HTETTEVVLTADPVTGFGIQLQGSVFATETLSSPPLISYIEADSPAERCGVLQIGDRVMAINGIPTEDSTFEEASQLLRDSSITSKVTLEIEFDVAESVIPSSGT

MAGI3_2, Q5TCQ9 = target: MAGI3_2, Q5TCQ9
DLG2_3, Q15700 = target: DLG2_3, Q15700
PDLIM1, O00151 = target: PDLIM1, O00151
PDZD7_3, Q9H5P4 = target: T2, PDZD7_3, Q9H5P4
T2 sequence (Q9H5P4 857-944, limits assumed, looked up): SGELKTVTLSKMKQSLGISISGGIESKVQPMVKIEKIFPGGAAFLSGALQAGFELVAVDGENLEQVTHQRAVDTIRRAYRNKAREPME

LNX2_2, Q8N448 = target: T3, LNX2_2, Q8N448
T3 sequence (Q8N448 334-432, limits assumed, looked up): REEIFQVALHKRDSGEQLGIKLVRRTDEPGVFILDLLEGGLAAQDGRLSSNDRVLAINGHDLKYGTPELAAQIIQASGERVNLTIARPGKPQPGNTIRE

MAGI2_3, Q86UL8 = target: MAGI2_3, Q86UL8
FRMPD1, Q5SYB0 = target: T4, FRMPD1, Q5SYB0
T4 sequence (Q5SYB0 52-145, limits assumed, looked up): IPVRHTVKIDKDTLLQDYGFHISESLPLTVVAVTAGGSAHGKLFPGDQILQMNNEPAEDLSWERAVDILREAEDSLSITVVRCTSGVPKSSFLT

Inadl_4, Q8NI35 = target: Inadl_4, Q8NI35
Inadl_1, Q8NI35 = target: Inadl_1, Q8NI35
FRMPD4, Q14CM0 = target: FRMPD4, Q14CM0
NHERF4_2, Q86UT5 = target: NHERF4_2, Q86UT5
DFNB31_3, Q9P202 = target: T5, DFNB31_3, Q9P202
T5 sequence (Q9P202 811-907, limits assumed, looked up): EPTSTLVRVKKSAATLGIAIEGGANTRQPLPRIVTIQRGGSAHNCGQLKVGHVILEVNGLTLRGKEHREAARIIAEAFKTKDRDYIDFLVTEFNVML

PARD3B_1, Q8TEW8 = target: T6, PARD3B_1, Q8TEW8
T6 sequence (Q8TEW8 196-299, limits assumed, looked up): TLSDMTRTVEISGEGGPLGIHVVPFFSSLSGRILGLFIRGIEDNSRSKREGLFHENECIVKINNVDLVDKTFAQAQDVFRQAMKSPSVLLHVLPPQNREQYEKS

APBA1_2, Q02410 = target: T7, APBA1_2, Q02410
T7 sequence (Q02410 742-832, limits assumed, looked up): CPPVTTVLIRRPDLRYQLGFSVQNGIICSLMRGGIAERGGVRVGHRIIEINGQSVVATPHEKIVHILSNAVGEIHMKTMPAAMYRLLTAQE

LNX1_3, Q8TBB1 = target: LNX1_3, Q8TBB1
FRMPD3, Q5JV73 = target: FRMPD3, Q5JV73
SHANK1, Q9Y566 = target: T8, SHANK1, Q9Y566
T8 sequence (Q9Y566 658-767, limits assumed, looked up): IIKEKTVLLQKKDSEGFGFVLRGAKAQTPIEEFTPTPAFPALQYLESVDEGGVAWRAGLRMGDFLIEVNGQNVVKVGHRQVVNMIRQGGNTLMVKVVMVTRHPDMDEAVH

Inadl_10, Q8NI35 = target: Inadl_10, Q8NI35
PTPN3, P26045 = target: PTPN3, P26045
MPDZ_5, O75970 = target: T9, MPDZ_5, O75970
T9 sequence (O75970 695-796, limits assumed, looked up): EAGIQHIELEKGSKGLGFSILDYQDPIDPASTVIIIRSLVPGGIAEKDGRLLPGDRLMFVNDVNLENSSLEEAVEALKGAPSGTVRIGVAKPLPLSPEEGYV

PDZRN4_1, Q6ZMN7 = target: PDZRN4_1, Q6ZMN7
FRMPD2_1, Q68DX3 = target: FRMPD2_1, Q68DX3
Inadl_6, Q8NI35 = target: Inadl_6, Q8NI35
GRIP1_5, Q9Y3R0 = target: T10, GRIP1_5, Q9Y3R0
T10 sequence (Q9Y3R0 568-668, limits assumed, looked up): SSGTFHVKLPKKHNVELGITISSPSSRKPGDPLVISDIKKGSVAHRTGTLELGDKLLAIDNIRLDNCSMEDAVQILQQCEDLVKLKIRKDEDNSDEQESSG

SIPA1L2, Q9P2F8 = target: T11, SIPA1L2, Q9P2F8
T11 sequence (Q9P2F8 945-1036, limits assumed, looked up): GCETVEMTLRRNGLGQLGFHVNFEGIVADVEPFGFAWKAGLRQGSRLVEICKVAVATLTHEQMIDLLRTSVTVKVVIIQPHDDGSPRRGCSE

NOS1, P29475 = target: NOS1, P29475
[1] = plain residues with an end cap or a label only (N-terminal biotin on a linker: gsgsgs; C-terminal amide)
[2] = plain residues with an end cap or a label only (N-terminal biotin on a linker: none)
[3] = plain residues with an end cap or a label only (N-terminal biotin on a linker: ado-ado)
[4] = plain residues with an end cap or a label only (N-terminal biotin on a linker: ttds)

NHERF4_2, Q86UT5, sequence (Q86UT5 220-308): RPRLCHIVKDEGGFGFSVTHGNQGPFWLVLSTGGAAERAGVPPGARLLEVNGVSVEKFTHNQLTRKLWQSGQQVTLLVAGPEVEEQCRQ
FRMPD4, Q14CM0, sequence (Q14CM0 67-160): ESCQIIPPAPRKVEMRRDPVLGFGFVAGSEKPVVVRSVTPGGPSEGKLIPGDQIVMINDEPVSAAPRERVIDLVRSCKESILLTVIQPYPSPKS
Inadl_1, Q8NI35, sequence (Q8NI35 113-229): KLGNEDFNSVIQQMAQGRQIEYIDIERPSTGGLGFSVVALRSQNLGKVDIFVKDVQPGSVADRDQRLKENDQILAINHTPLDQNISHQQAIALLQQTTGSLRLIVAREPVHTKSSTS
PTPN3, P26045, sequence (P26045 505-587): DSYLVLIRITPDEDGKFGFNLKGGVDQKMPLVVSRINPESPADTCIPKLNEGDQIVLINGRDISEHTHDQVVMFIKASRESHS
FRMPD3, Q5JV73, sequence (Q5JV73 12-100): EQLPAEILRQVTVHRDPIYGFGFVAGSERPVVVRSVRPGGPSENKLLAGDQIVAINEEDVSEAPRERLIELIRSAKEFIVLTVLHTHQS
Inadl_6, Q8NI35, sequence (Q8NI35 1058-1167): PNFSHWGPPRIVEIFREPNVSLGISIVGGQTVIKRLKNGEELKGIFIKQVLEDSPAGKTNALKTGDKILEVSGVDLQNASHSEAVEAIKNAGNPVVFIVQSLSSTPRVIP
NOS1, P29475, sequence (P29475 9-101): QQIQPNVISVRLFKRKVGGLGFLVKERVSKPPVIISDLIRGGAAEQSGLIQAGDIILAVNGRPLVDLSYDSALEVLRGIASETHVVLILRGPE
Inadl_4, Q8NI35, sequence (Q8NI35 547-651): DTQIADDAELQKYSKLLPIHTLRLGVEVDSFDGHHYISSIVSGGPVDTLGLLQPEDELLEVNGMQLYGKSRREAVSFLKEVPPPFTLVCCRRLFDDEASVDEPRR
MAGI3_2, Q5TCQ9, sequence (Q5TCQ9 398-503): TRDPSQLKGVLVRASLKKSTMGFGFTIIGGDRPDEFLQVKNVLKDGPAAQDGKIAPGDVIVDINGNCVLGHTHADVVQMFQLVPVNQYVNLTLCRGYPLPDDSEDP
PDLIM1, O00151, sequence (O00151 1-87): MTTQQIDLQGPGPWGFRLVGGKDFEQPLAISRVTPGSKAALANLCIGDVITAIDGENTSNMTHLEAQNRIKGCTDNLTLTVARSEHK
MAGI2_3, Q86UL8, sequence (Q86UL8 600-682): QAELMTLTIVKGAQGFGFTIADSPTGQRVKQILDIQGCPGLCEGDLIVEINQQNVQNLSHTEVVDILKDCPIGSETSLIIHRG
LNX1_3, Q8TBB1, sequence (Q8TBB1 500-596): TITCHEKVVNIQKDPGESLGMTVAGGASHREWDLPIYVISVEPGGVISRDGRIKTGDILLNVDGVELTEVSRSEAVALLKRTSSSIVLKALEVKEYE
PDZRN4_1, Q6ZMN7, sequence (Q6ZMN7 213-318): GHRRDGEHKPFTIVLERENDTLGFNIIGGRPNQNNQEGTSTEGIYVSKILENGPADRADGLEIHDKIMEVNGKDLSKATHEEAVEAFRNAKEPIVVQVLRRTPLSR
FRMPD2_1, Q68DX3, sequence (Q68DX3 770-861): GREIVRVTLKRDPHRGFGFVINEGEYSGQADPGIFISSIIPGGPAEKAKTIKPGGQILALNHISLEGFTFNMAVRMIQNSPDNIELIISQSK
Inadl_10, Q8NI35, sequence (Q8NI35 1673-1763): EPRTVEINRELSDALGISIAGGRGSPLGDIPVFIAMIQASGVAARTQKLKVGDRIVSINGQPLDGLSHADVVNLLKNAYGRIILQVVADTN

Binder: ELIQDTSTSFSTTREW [ARAP3_int, Q8WWN8]
- pKd (GRIP1_4, Q9Y3R0; [1]): below the threshold
- pKd (MAGI3_2, Q5TCQ9; [1]): below the threshold
- pKd (DLG2_3, Q15700; [1]): 3.69
- pKd (PDLIM1, O00151; [1]): below the threshold
- pKd (PDZD7_3, Q9H5P4; [1]): below the threshold
- pKd (LNX2_2, Q8N448; [1]): below the threshold
- pKd (MAGI2_3, Q86UL8; [1]): 3.5
- pKd (FRMPD1, Q5SYB0; [1]): below the threshold
- pKd (Inadl_4, Q8NI35; [1]): below the threshold
- pKd (Inadl_1, Q8NI35; [1]): below the threshold
- pKd (FRMPD4, Q14CM0; [1]): below the threshold
- pKd (NHERF4_2, Q86UT5; [1]): below the threshold
- pKd (DFNB31_3, Q9P202; [1]): 3.83
- pKd (PARD3B_1, Q8TEW8; [1]): below the threshold
- pKd (APBA1_2, Q02410; [1]): below the threshold
- pKd (LNX1_3, Q8TBB1; [1]): below the threshold
- pKd (FRMPD3, Q5JV73; [1]): below the threshold
- pKd (SHANK1, Q9Y566; [1]): 4.4
- pKd (Inadl_10, Q8NI35; [1]): below the threshold
- pKd (PTPN3, P26045; [1]): 3.84
- pKd (MPDZ_5, O75970; [1]): below the threshold
- pKd (PDZRN4_1, Q6ZMN7; [1]): below the threshold
- pKd (FRMPD2_1, Q68DX3; [1]): below the threshold
- pKd (Inadl_6, Q8NI35; [1]): below the threshold
- pKd (GRIP1_5, Q9Y3R0; [1]): below the threshold
- pKd (SIPA1L2, Q9P2F8; [1]): below the threshold
- pKd (NOS1, P29475; [1]): below the threshold

Binder: DSKPPLPPDEWV [MERS-E, K9N5R3]
- pKd (GRIP1_4, Q9Y3R0; [2]): below the threshold
- pKd (MAGI3_2, Q5TCQ9; [2]): below the threshold
- pKd (DLG2_3, Q15700; [2]): below the threshold
- pKd (PDLIM1, O00151; [2]): below the threshold
- pKd (PDZD7_3, Q9H5P4; [2]): below the threshold
- pKd (LNX2_2, Q8N448; [2]): 4.44
- pKd (MAGI2_3, Q86UL8; [2]): below the threshold
- pKd (FRMPD1, Q5SYB0; [2]): below the threshold
- pKd (Inadl_4, Q8NI35; [2]): below the threshold
- pKd (Inadl_1, Q8NI35; [2]): 3.61
- pKd (FRMPD4, Q14CM0; [2]): 4.07
- pKd (NHERF4_2, Q86UT5; [2]): below the threshold
- pKd (DFNB31_3, Q9P202; [2]): below the threshold
- pKd (PARD3B_1, Q8TEW8; [2]): 3.5
- pKd (APBA1_2, Q02410; [2]): 4.59
- pKd (LNX1_3, Q8TBB1; [2]): below the threshold
- pKd (FRMPD3, Q5JV73; [2]): 4.17
- pKd (SHANK1, Q9Y566; [2]): below the threshold
- pKd (Inadl_10, Q8NI35; [2]): below the threshold
- pKd (PTPN3, P26045; [2]): 3.87
- pKd (MPDZ_5, O75970; [2]): below the threshold
- pKd (PDZRN4_1, Q6ZMN7; [2]): 3.49
- pKd (FRMPD2_1, Q68DX3; [2]): below the threshold
- pKd (Inadl_6, Q8NI35; [2]): 3.81
- pKd (GRIP1_5, Q9Y3R0; [2]): 3.68
- pKd (SIPA1L2, Q9P2F8; [2]): below the threshold
- pKd (NOS1, P29475; [2]): 3.99

Binder: LHLHGTGIQV [EPHA7, Q15375]
- pKd (GRIP1_4, Q9Y3R0; [3]): below the threshold
- pKd (MAGI3_2, Q5TCQ9; [3]): 3.55
- pKd (DLG2_3, Q15700; [3]): below the threshold
- pKd (PDLIM1, O00151; [3]): below the threshold
- pKd (PDZD7_3, Q9H5P4; [3]): below the threshold
- pKd (LNX2_2, Q8N448; [3]): 5.03
- pKd (MAGI2_3, Q86UL8; [3]): 3.63
- pKd (FRMPD1, Q5SYB0; [3]): below the threshold
- pKd (Inadl_4, Q8NI35; [3]): below the threshold
- pKd (Inadl_1, Q8NI35; [3]): below the threshold
- pKd (FRMPD4, Q14CM0; [3]): 3.97
- pKd (NHERF4_2, Q86UT5; [3]): 3.54
- pKd (DFNB31_3, Q9P202; [3]): 3.99
- pKd (PARD3B_1, Q8TEW8; [3]): 3.72
- pKd (APBA1_2, Q02410; [3]): 4.22
- pKd (LNX1_3, Q8TBB1; [3]): 3.48
- pKd (FRMPD3, Q5JV73; [3]): 3.5
- pKd (SHANK1, Q9Y566; [3]): below the threshold
- pKd (Inadl_10, Q8NI35; [3]): below the threshold
- pKd (PTPN3, P26045; [3]): 4.06
- pKd (MPDZ_5, O75970; [3]): 4.1
- pKd (PDZRN4_1, Q6ZMN7; [3]): 3.57
- pKd (FRMPD2_1, Q68DX3; [3]): 5.03
- pKd (Inadl_6, Q8NI35; [3]): below the threshold
- pKd (GRIP1_5, Q9Y3R0; [3]): below the threshold
- pKd (SIPA1L2, Q9P2F8; [3]): below the threshold
- pKd (NOS1, P29475; [3]): 4.24

Binder: HRTCYLVTQL [ASIC3, Q9UHC3]
- pKd (GRIP1_4, Q9Y3R0; [4]): below the threshold
- pKd (MAGI3_2, Q5TCQ9; [4]): 4.3
- pKd (DLG2_3, Q15700; [4]): 4.17
- pKd (PDLIM1, O00151; [4]): 3.46
- pKd (PDZD7_3, Q9H5P4; [4]): 5.47
- pKd (LNX2_2, Q8N448; [4]): below the threshold
- pKd (MAGI2_3, Q86UL8; [4]): 3.47
- pKd (FRMPD1, Q5SYB0; [4]): below the threshold
- pKd (Inadl_4, Q8NI35; [4]): below the threshold
- pKd (Inadl_1, Q8NI35; [4]): 3.52
- pKd (FRMPD4, Q14CM0; [4]): 3.77
- pKd (NHERF4_2, Q86UT5; [4]): 3.21
- pKd (DFNB31_3, Q9P202; [4]): 4.25
- pKd (PARD3B_1, Q8TEW8; [4]): 3.95
- pKd (APBA1_2, Q02410; [4]): 3.78
- pKd (LNX1_3, Q8TBB1; [4]): 3.55
- pKd (FRMPD3, Q5JV73; [4]): 3.53
- pKd (SHANK1, Q9Y566; [4]): 4.91
- pKd (Inadl_10, Q8NI35; [4]): 3.84
- pKd (PTPN3, P26045; [4]): 4.48
- pKd (MPDZ_5, O75970; [4]): 3.4
- pKd (PDZRN4_1, Q6ZMN7; [4]): 4.24
- pKd (FRMPD2_1, Q68DX3; [4]): 3.37
- pKd (Inadl_6, Q8NI35; [4]): 4.23
- pKd (GRIP1_5, Q9Y3R0; [4]): below the threshold
- pKd (SIPA1L2, Q9P2F8; [4]): below the threshold
- pKd (NOS1, P29475; [4]): 3.75

From publication PMC9482650, “Quantitative fragmentomics allow affinity mapping of interactomes” (Nature Communications, 2022)
